B1: recombinant chimeric protein hLH-R-ECD-hCG-β-CTP (extracellular domain of hLH-R, Gly-Thr linker, carboxyl terminal peptide of hCG-β) (receptor)
chain: LPRALREALCPEPCNCVPDGALRCPGPTAGLTRLSLAYLPVKVIPSQAFRGLNEVIKIEISQIDSLERIEANAFDNLLNLSEILIQNTKNLRYIEPGAFINLPRLKYLSICNTGIRKFPDVTKVFSSESNFILEICDNLHITTIPGNAFQGMNNESVTLKLYGNGFEEVQSHAFNGTTLTSLELKENVHLEKMHNGAFRGATGPKTLDISSTKLQALPSYGLESIQRLIATSSYSLKKLPSRETFVNLLEATLTYPSHCCAFRNLPTKEQNFSHSISENFSKQCESTVRKVSNKTLYSSMLAESELSGWDYEYGFCLPKTPRCAPEPGTLTCDDPRFQDSSSSKAPPPSLPSPSRLPGPSDTPILPQ
notes: The vector was pBlueBac4.5/V5-His; also called chimera 3; hLH-R-ECD/hCG-CTP
B2: human chorionic gonadotropin (hCG), highly purified, CR-125, NICHD (ligand)
chain 1: not shown
chain 2: SKEPLRPRCRPINATLAVEKEGCPVCITVNTTICAGYCPTMTRVLQGVLPALPQVVCNYRDVRFESIRLPGCPRGVNPVVSYAVALSCQCALCRRSTTDCGGPKDHPLTCDDPRFQDSSSSKAPPPSLPSPSRLPGPSDTPILPQ

How the values were obtained:
[1] = target: B2; assay: displacement of biotinylated-hCG by unlabeled hCG on transfected Sf9 cells, HRP-streptavidin ELISA
Procedure: A competitive binding assay was performed to determine whether hCG would bind to the chimeric protein containing both hLH-R-ECD and hCG-β-CTP. After 24 hr of transfection with recombinant baculovirus, Sf9 insect cells were incubated for 24 hr at 27° C. with 20 ng/μl of biotinylated-hCG and increasing concentrations of unlabeled hCG as the competitor. The Sf9 cells infected with the recombinant baculovirus containing ECD of LH-R alone was set up as the control. The binding of biotinylated-hCG on the surface of the Sf9 insect cells was examined by ELISA using horseradish peroxidase (HRP)-streptavidin conjugate.

[2] = target: recombinant chimeric hLH-R-hCG-β fusion protein (full-length human lutropin hormone receptor, Arg-Ser linker, … (human)); assay: cell-based or functional assay

binding result [1]	intracellular cAMP, increase over baseline [2]	Binder
binds		B1
	~6 fold	B2

From patent US20060073571A1 (CORNELL RESEARCH FOUNDATION, published 2006)
